# Data taken from the Human Domainome abundance scans (Beltran et al. 2025).
# ± gives the uncertainty stated by the source.
# B1: Double-stranded RNA-specific adenosine deaminase, residues 296 to 358; numbered along this chain, P55265 (parent)
# chain: MAEIKEKICDYLFNVSDSSALNLAKNIGLTKARDINAVLIDMERQGDVYRQGTTPPIWHLTDK
# Variants of: B1
# Test: abundance fitness (aPCA) (normalised: wild type 0, dead -1); higher = more abundant; growth selection in yeast, the domain comes from the species named
# Conditions: Homo sapiens
row,Variant,abundance fitness
1,MAEIKEKICDYLFNVNDSSALNLAKNIGLTKARDINAVLIDMERQGDVYRQGTTPPIWHLTDK [S16N],-0.006 ± 0.087
2,MAEIKEKICDYLFNVSDSSKLNLAKNIGLTKARDINAVLIDMERQGDVYRQGTTPPIWHLTDK [A20K],-0.606 ± 0.083
3,MAEIKEKICDYLFNVSDSSALNLAKNIGLTKARDINAVLIDMERQGDVYAQGTTPPIWHLTDK [R50A],-0.238 ± 0.061
4,MAEIKEKICDYLFNVSDSSALNLAKNIGLTKARDINAVLIDMERQGDVYQQGTTPPIWHLTDK [R50Q],0.036 ± 0.083
5,MAEIKEKICDYLFNVSDSSALNLAKNLGLTKARDINAVLIDMERQGDVYRQGTTPPIWHLTDK [I27L],-0.01 ± 0.046
6,MAEIKEKICDYLFNVSDSSALNLAKNEGLTKARDINAVLIDMERQGDVYRQGTTPPIWHLTDK [I27E],-0.274 ± 0.078
7,MAEIKEKICDYLFNISDSSALNLAKNIGLTKARDINAVLIDMERQGDVYRQGTTPPIWHLTDK [V15I],-0.2 ± 0.2
8,MAEIKEKICDYLFNDSDSSALNLAKNIGLTKARDINAVLIDMERQGDVYRQGTTPPIWHLTDK [V15D],-0.463 ± 0.1
9,MAEIKEKICDYLFNVSDSSALNLAKNIGDTKARDINAVLIDMERQGDVYRQGTTPPIWHLTDK [L29D],0.035 ± 0.058
10,MAEIKEKICDYLFNVSDSSALNLAKNIGMTKARDINAVLIDMERQGDVYRQGTTPPIWHLTDK [L29M],0.154 ± 0.096
11,MAEIKEKICDYLFNVSDSSALNLAKNIGLTKVRDINAVLIDMERQGDVYRQGTTPPIWHLTDK [A32V],0.108 ± 0.054
12,MAEIKEKICDYLFNVSDSSALNLAKNIGLTKFRDINAVLIDMERQGDVYRQGTTPPIWHLTDK [A32F],-0.091 ± 0.074
13,MAEIKEKICDYLFNVSDSSALNLAKNIGLTKARDINAVLIDMERAGDVYRQGTTPPIWHLTDK [Q45A],0.145 ± 0.049
14,MAEIKEKICDYLFNVSDSSALNLAKNIGLTKARDINAVLIDMERQGDVYRQNTTPPIWHLTDK [G52N],-0.072 ± 0.069
15,MAEIKEKICDYLFNVSDSSALNLAKNIGLTKARDINAVLIDMERQGDVYRQGTTPPIWHLTCK [D62C],-0.185 ± 0.062
16,MAEIKEKICDYLGNVSDSSALNLAKNIGLTKARDINAVLIDMERQGDVYRQGTTPPIWHLTDK [F13G],0.335 ± 0.044
17,MAEIKEKICDYLFNVSDSSALNLAKNIGLTKARDTNAVLIDMERQGDVYRQGTTPPIWHLTDK [I35T],-0.217 ± 0.075
18,MAEIKEKICDYLFNVSDSSALNLAKNIGLTKARDLNAVLIDMERQGDVYRQGTTPPIWHLTDK [I35L],-0.279 ± 0.058
19,MAEIKEKICDYLFNVSDSSALNLAKNIGLTKARDINAVLINMERQGDVYRQGTTPPIWHLTDK [D41N],-0.514 ± 0.12
20,MAEIKEKICDYLFNVSDSSALNLAKNIGLTKARDINAVLIVMERQGDVYRQGTTPPIWHLTDK [D41V],-1.14 ± 0.2
21,MAEIKEKICDYLFNVSDSSALNLAKNIGLTKARDINAVVIDMERQGDVYRQGTTPPIWHLTDK [L39V],-0.589 ± 0.08
22,MAEIKEKICDYLFNVSDSSALNLAKNIGLTKARDINAVHIDMERQGDVYRQGTTPPIWHLTDK [L39H],-0.44 ± 0.13

row,Variant,abundance fitness
1,MAEIKEKICDYLFNVSDSSALNLAKNIGLTKARDINAVAIDMERQGDVYRQGTTPPIWHLTDK [L39A],-0.148 ± 0.059
2,MAEIKEKICDYLFNVSDSSALNLAKNIRLTKARDINAVLIDMERQGDVYRQGTTPPIWHLTDK [G28R],-0.802 ± 0.072
3,MAEIKEKICDYLFAVSDSSALNLAKNIGLTKARDINAVLIDMERQGDVYRQGTTPPIWHLTDK [N14A],-0.014 ± 0.049
4,MAEIKEKICDYLFNVSDSSALNLAKNIGLTDARDINAVLIDMERQGDVYRQGTTPPIWHLTDK [K31D],0.36 ± 0.1
5,FAEIKEKICDYLFNVSDSSALNLAKNIGLTKARDINAVLIDMERQGDVYRQGTTPPIWHLTDK [M1F],0.108 ± 0.2
6,MVEIKEKICDYLFNVSDSSALNLAKNIGLTKARDINAVLIDMERQGDVYRQGTTPPIWHLTDK [A2V],-0.247 ± 0.059
7,MAEIKEKICDYLFNVSDSSAINLAKNIGLTKARDINAVLIDMERQGDVYRQGTTPPIWHLTDK [L21I],-0.044 ± 0.12
8,MAEIKEKICDYLFNVSDSSACNLAKNIGLTKARDINAVLIDMERQGDVYRQGTTPPIWHLTDK [L21C],-0.136 ± 0.056
9,MAEIKEKICDYLFNVSDSSALNLAKNIGLNKARDINAVLIDMERQGDVYRQGTTPPIWHLTDK [T30N],0.127 ± 0.1
10,MAEIKEKICDYLFNVSDSSALNLAKNIGLEKARDINAVLIDMERQGDVYRQGTTPPIWHLTDK [T30E],0.361 ± 0.051
11,MAEIKEKICDYLFNVSTSSALNLAKNIGLTKARDINAVLIDMERQGDVYRQGTTPPIWHLTDK [D17T],-0.501 ± 0.49
12,MAEIKEKICDYLFNVSDSSALNLAKNIGLTKARDINAVLIDMERQGDVYRQGTTHPIWHLTDK [P55H],-0.435 ± 0.087
13,MAEIKEKICDYLFNVSDSSALNLAKNIGLTKARDINAVLIDMERQGDVYRQGTTYPIWHLTDK [P55Y],-0.491 ± 0.11
14,MAEIKEKICDYLFNVSDSSALNLAKNIGLTKARDINAVLIDMERQGDVYRQGTTTPIWHLTDK [P55T],-0.25 ± 0.059
15,MAEIKEKICDYLFNVSDSSALILAKNIGLTKARDINAVLIDMERQGDVYRQGTTPPIWHLTDK [N22I],-0.339 ± 0.12
16,MAEIKEKICDYLFNVSDSSALPLAKNIGLTKARDINAVLIDMERQGDVYRQGTTPPIWHLTDK [N22P],-0.219 ± 0.18
17,MAEIKEKGCDYLFNVSDSSALNLAKNIGLTKARDINAVLIDMERQGDVYRQGTTPPIWHLTDK [I8G],-0.471 ± 0.096
18,MAEIKEKICDYLFNVSDSSALNKAKNIGLTKARDINAVLIDMERQGDVYRQGTTPPIWHLTDK [L23K],-0.531 ± 0.14
19,MAMIKEKICDYLFNVSDSSALNLAKNIGLTKARDINAVLIDMERQGDVYRQGTTPPIWHLTDK [E3M],-0.621 ± 0.15
20,MAEIKEKICDYLFNVSDSSALNLAKNIGLTKARDINAVLIDMERQGDVFRQGTTPPIWHLTDK [Y49F],-0.167 ± 0.064
21,MAEIKEKICDYLFNVSDSSALNLAKNIGLTKARDINAVLIDPERQGDVYRQGTTPPIWHLTDK [M42P],-0.502 ± 0.059
